Assay results: the Immune Epitope Database (IEDB)
pKd: −log10 of the molar value.

What was measured:
HLA-B*35:01 = experiment: IEDB peptide-MHC binding, purified MHC/competitive/radioactivity; filed as Kd, often an IC50 or EC50 that approximates it; ≥ and ≤ were set here for values at or beyond the usual limits of such assays; details: source organism: Dengue virus 4 Philippines/H241/1956
HLA-B*53:01 = experiment: as above; details: source organism: Dengue virus 4 Philippines/H241/1956
HLA-B*57:01 [1] = experiment: as above; details: source organism: Dengue virus 4 Philippines/H241/1956
HLA-B*58:01 [2] = experiment: as above
HLA-A*01:01 = experiment: IEDB peptide-MHC binding, purified MHC/direct/fluorescence; filed as Kd, often an IC50 or EC50 that approximates it; ≥ and ≤ were set here for values at or beyond the usual limits of such assays; details: source organism: Mycobacterium tuberculosis C
HLA-A*02:01 = experiment: as above; details: source organism: Mycobacterium tuberculosis C
HLA-A*03:01 = experiment: as above; details: source organism: Mycobacterium tuberculosis C
HLA-A*11:01 = experiment: as above; details: source organism: Mycobacterium tuberculosis C
HLA-A*29:02 = experiment: as above; details: source organism: Mycobacterium tuberculosis C
HLA-A*31:01 = experiment: as above; details: source organism: Mycobacterium tuberculosis C
HLA-B*08:01 = experiment: as above; details: source organism: Mycobacterium tuberculosis C
HLA-B*15:01 = experiment: as above; details: source organism: Mycobacterium tuberculosis C
HLA-B*27:05 = experiment: as above; details: source organism: Mycobacterium tuberculosis C
HLA-B*40:01 = experiment: as above; details: source organism: Mycobacterium tuberculosis C
HLA-B*44:02 = experiment: as above; details: source organism: Mycobacterium tuberculosis C
HLA-B*46:01 = experiment: as above; details: source organism: Mycobacterium tuberculosis C
HLA-B*48:01 = experiment: as above; details: source organism: Mycobacterium tuberculosis C
HLA-B*57:01 [3] = experiment: as above; details: source organism: Mycobacterium tuberculosis C
HLA-B*58:01 [4] = experiment: as above; details: source organism: Mycobacterium tuberculosis C
HLA-C*05:01 = experiment: as above; details: source organism: Mycobacterium tuberculosis H37Ra
HLA-B*15:42 = experiment: IEDB peptide-MHC binding, purified MHC/competitive/fluorescence; filed as Kd, often an IC50 or EC50 that approximates it; ≥ and ≤ were set here for values at or beyond the usual limits of such assays; details: source organism: Mycobacterium tuberculosis H37Ra
HLA-B*45:06 = experiment: as above; details: source organism: Mycobacterium tuberculosis H37Ra
HLA-B*51:01 = experiment: as above; details: source organism: Mycobacterium tuberculosis H37Ra
HLA-B*83:01 = experiment: as above; details: source organism: Mycobacterium tuberculosis H37Ra

## MAILGETAW
HLA-B*35:01
  pKd: 6.99
HLA-B*53:01
  pKd: 8.15
HLA-B*57:01 [1]
  pKd: 7.63
HLA-B*58:01 [2]; source organism: Dengue virus 4 Philippines/H241/1956
  pKd: 8.46

## FPRYPLNVL
HLA-A*01:01
  pKd: ≤ 4.70
HLA-A*02:01
  pKd: ≤ 4.70
HLA-A*03:01
  pKd: ≤ 4.70
HLA-A*11:01
  pKd: ≤ 4.70
HLA-A*29:02
  pKd: ≤ 4.70
HLA-A*31:01
  pKd: ≤ 4.70
HLA-B*08:01
  pKd: 5.98
HLA-B*15:01
  pKd: ≤ 4.70
HLA-B*27:05
  pKd: ≤ 4.70
HLA-B*40:01
  pKd: ≤ 4.70
HLA-B*44:02
  pKd: ≤ 4.70
HLA-B*46:01
  pKd: ≤ 4.70
HLA-B*48:01
  pKd: ≤ 4.70
HLA-B*57:01 [3]
  pKd: ≤ 4.70
HLA-B*58:01 [4]
  pKd: ≤ 4.70
HLA-C*05:01
  pKd: ≤ 4.70
HLA-B*15:42
  pKd: ≤ 5.30
HLA-B*45:06
  pKd: ≤ 5.30
HLA-B*51:01
  pKd: ≤ 4.70
HLA-B*83:01
  pKd: 5.58

## AAVLLLVTHY
HLA-B*58:01 [2]; source organism: Dengue virus 3 Singapore/8120/1995
  pKd: 5.38
